Test results as given in PMC7065143, “Substrate Flexibility of the Flavin‐Dependent Dihydropyrrole Oxidases PigB and HapB Involved in Antibiotic Prodigiosin Biosynthesis” (Chembiochem, 2019).

Substrate: CCCCCC1CCN=C1C
Test: purified protein
Type: biochemical, Hahella chejuensis
Settings: MES pH 6.0 10 mM, 30 °C, air, DMSO, racemic substrate 0.1–1.4 mM, HapB 0.457 μM

B1: HapB (Hahella chejuensis KCTC 2396) (protein)
chain: MESQDNSQYAGEAPVFPSKDFECNQGSFDDTDTSPPQHAGDYDVIVVGGGISGLSSAWKLRERKLLVLDQRDRFGGAARLEQRDGLLYASGASCFQLPTGHNEVSHLLQDLDLWNQWRSTAEDTLVIFDTKRLMKGLGEVTAALLKQPKELLKPAVWGLTANLLYSAMSGKPFISAEKKLGDPMFADLFQYLNRFTPDSGKHPAMPWREGCDWTREEMELFDSVSLHDLLFDPATRRSLPQDLIPRHRFGSLVKDAVETTLRVECLAIKDVSAYVGLHFLVGYLYRPLVTFPGGNGYIADRIRQRLMSTGSCKFKAGSRAYSITQNQEGVKVCFQQEGKNYYANANALIWAGAKHAAVSVVDGLPQQQKAAIAEIEHRDYAIAGVYLKKAALANYFGGYVIEGDIGGRYPNSWCRSGVCLAANWKDPSYAGGLGVLTLLKPISGAADQGKLGKADFRNLQQTAYGEVRDMLVATGHSPDLIEDIKLWRWPHGLVVSKVGQMKHDVFVNASQPVGAVFFANQDSVGMGNMESAIWAGCHAAEQVRRHFRSHSSVVSHIGDYAATQS
notes: full-length, N-terminal His6 tag (pQE80-L, pHDB1), E. coli BL21, Ni-NTA; soluble, lacks the N-terminal transmembrane domain of PigB
B1 was tested, and the Km was 220 ± 80 µM and the kcat was 0.228 ± 0.02 s⁻¹.
